B1: JUNB (protein, UniProt P17275 1-347, looked up)
Transcription factor JunB: MCTKMEQPFYHDDSYTATGYGRAPGGLSLHDYKLLKPSLAVNLADPYRSLKAPGARGPGPEGGGGGSYFSGQGSDTGASLKLASSELERLIVPNSNGVITTTPTPPGQYFYPRGGGSGGGAGGAGGGVTEEQEGFADGFVKALDDLHKMNHVTPPNVSLGATGGPPAGPGGVYAGPEPPPVYTNLSSYSPASASSGGAGAAVGTGSSYPTTTISYLPHAPPFAGGHPAQLGLGRGASTFKEEPQTVPEARSRDATPPVSPINMEDQERIKVERKRLRNRLAATKCRKRKLERIARLEDKVKTLKAENAGLSSTAGLLREQVAQLKQKVMTHVSNGCQLLLGVKGHAF
B2: LASS6 (protein, UniProt Q6ZMG9 1-384, looked up)
Ceramide synthase 6: MAGILAWFWNERFWLPHNVTWADLKNTEEATFPQAEDLYLAFPLAFCIFMVRLIFERFVAKPCAIALNIQANGPQIAPPNAILEKVFTAITKHPDEKRLEGLSKQLDWDVRSIQRWFRQRRNQEKPSTLTRFCESMWRFSFYLYVFTYGVRFLKKTPWLWNTRHCWYNYPYQPLTTDLHYYYILELSFYWSLMFSQFTDIKRKDFGIMFLHHLVSIFLITFSYVNNMARVGTLVLCLHDSADALLEAAKMANYAKFQKMCDLLFVMFAVVFITTRLGIFPLWVLNTTLFESWEIVGPYPSWWVFNLLLLLVQGLNCFWSYLIVKIACKAVSRGKVSKDDRSDIESSSDEEDSEPPGKNPHTATTTNGTSGTNGYLLTGSCSMDD
B3: ARRB1 (protein, UniProt P49407 1-418, looked up)
Beta-arrestin-1: MGDKGTRVFKKASPNGKLTVYLGKRDFVDHIDLVDPVDGVVLVDPEYLKERRVYVTLTCAFRYGREDLDVLGLTFRKDLFVANVQSFPPAPEDKKPLTRLQERLIKKLGEHAYPFTFEIPPNLPCSVTLQPGPEDTGKACGVDYEVKAFCAENLEEKIHKRNSVRLVIRKVQYAPERPGPQPTAETTRQFLMSDKPLHLEASLDKEIYYHGEPISVNVHVTNNTNKTVKKIKISVRQYADICLFNTAQYKCPVAMEEADDTVAPSSTFCKVYTLTPFLANNREKRGLALDGKLKHEDTNLASSTLLREGANREILGIIVSYKVKVKLVVSRGGLLGDLASSDVAVELPFTLMHPKPKEEPPHREVPENETPVDTNLIELDTNDDDIVFEDFARQRLKGMKDDKEEEEDGTGSPQLNNR
B4: JADE2 (protein, UniProt Q9NQC1 1-790, looked up)
E3 ubiquitin-protein ligase …: MEEKRRKYSISSDNSDTTDSHATSTSASRCSKLPSSTKSGWPRQNEKKPSEVFRTDLITAMKIPDSYQLSPDDYYILADPWRQEWEKGVQVPAGAEAIPEPVVRILPPLEGPPAQASPSSTMLGEGSQPDWPGGSRYDLDEIDAYWLELINSELKEMERPELDELTLERVLEELETLCHQNMARAIETQEGLGIEYDEDVVCDVCRSPEGEDGNEMVFCDKCNVCVHQACYGILKVPTGSWLCRTCALGVQPKCLLCPKRGGALKPTRSGTKWVHVSCALWIPEVSIGCPEKMEPITKISHIPASRWALSCSLCKECTGTCIQCSMPSCVTAFHVTCAFDHGLEMRTILADNDEVKFKSFCQEHSDGGPRNEPTSEPTEPSQAGEDLEKVTLRKQRLQQLEEDFYELVEPAEVAERLDLAEALVDFIYQYWKLKRKANANQPLLTPKTDEVDNLAQQEQDVLYRRLKLFTHLRQDLERVRNLCYMVTRRERTKHAICKLQEQIFHLQMKLIEQDLCRGLSTSFPIDGTFFNSWLAQSVQITAENMAMSEWPLNNGHREDPAPGLLSEELLQDEETLLSFMRDPSLRPGDPARKARGRTRLPAKKKPPPPPPQDGPGSRTTPDKAPKKTWGQDAGSGKGGQGPPTRKPPRRTSSHLPSSPAAGDCPILATPESPPPLAPETPDEAASVAADSDVQVPGPAASPKPLGRLRPPRESKVTRRLPGARPDAGMGPPSAVAERPKVSLHFDTETDGYFSDGEMSDSDVEAEDGGVQRGPREAGAEEVVRMGVLAS
B5: JUP (protein, UniProt P14923 1-745, looked up)
Junction plakoglobin: MEVMNLMEQPIKVTEWQQTYTYDSGIHSGANTCVPSVSSKGIMEEDEACGRQYTLKKTTTYTQGVPPSQGDLEYQMSTTARAKRVREAMCPGVSGEDSSLLLATQVEGQATNLQRLAEPSQLLKSAIVHLINYQDDAELATRALPELTKLLNDEDPVVVTKAAMIVNQLSKKEASRRALMGSPQLVAAVVRTMQNTSDLDTARCTTSILHNLSHHREGLLAIFKSGGIPALVRMLSSPVESVLFYAITTLHNLLLYQEGAKMAVRLADGLQKMVPLLNKNNPKFLAITTDCLQLLAYGNQESKLIILANGGPQALVQIMRNYSYEKLLWTTSRVLKVLSVCPSNKPAIVEAGGMQALGKHLTSNSPRLVQNCLWTLRNLSDVATKQEGLESVLKILVNQLSVDDVNVLTCATGTLSNLTCNNSKNKTLVTQNSGVEALIHAILRAGDKDDITEPAVCALRHLTSRHPEAEMAQNSVRLNYGIPAIVKLLNQPNQWPLVKATIGLIRNLALCPANHAPLQEAAVIPRLVQLLVKAHQDAQRHVAAGTQQPYTDGVRMEEIVEGCTGALHILARDPMNRMEIFRLNTIPLFVQLLYSSVENIQRVAAGVLCELAQDKEAADAIDAEGASAPLMELLHSRNEGTATYAAAVLFRISEDKNPDYRKRVSVELTNSLFKHDPAAWEAAQSMIPINEPYGDDMDATYRPMYSSDVPLDPLEMHMDMDGDYPIDTYSDGLRPPYPTADHMLA
B6: LBX2 (protein, UniProt Q9WUN8 1-195, looked up)
Transcription factor LBX2: MNSVHQRRTPFSIADILGPSMVPEAPSAPQLPEAGPDPASPLCALEELASKTFLGHSPRATPQPSEGRAAPEAPPGPGAGVRRRRKSRTAFTAQQVLELERRFVFQKYLAPSERDGLAARLGLANAQVVTWFQNRRAKLKRDVEEMRADVASLCGLSPGVLCYPALPDSTSSPDPGPSGPDSEPNLSDEEIQVDD
B7: JDP2 (protein, UniProt P97875 1-163, looked up)
Jun dimerization protein 2: MMPGQIPDPSVTAGSLPGLGPLTGLPSSALTTEELKYADIRNIGAMIAPLHFLEVKLGKRPQPVKSELDEEEERRKRRREKNKVAAARCRNKKKERTEFLQRESERLELMNAELKTQIEELKLERQQLILMLNRHRPTCIVRTDSVRTPESEGNPLLEQLDKK
B8: LASS4 (protein, UniProt Q9HA82 1-394, looked up)
Ceramide synthase 4: MLSSFNEWFWQDRFWLPPNVTWTELEDRDGRVYPHPQDLLAALPLALVLLAMRLAFERFIGLPLSRWLGVRDQTRRQVKPNATLEKHFLTEGHRPKEPQLSLLAAQCGLTLQQTQRWFRRRRNQDRPQLTKKFCEASWRFLFYLSSFVGGLSVLYHESWLWAPVMCWDRYPNQTLKPSLYWWYLLELGFYLSLLIRLPFDVKRKDFKEQVIHHFVAVILMTFSYSANLLRIGSLVLLLHDSSDYLLEACKMVNYMQYQQVCDALFLIFSFVFFYTRLVLFPTQILYTTYYESISNRGPFFGYYFFNGLLMLLQLLHVFWSCLILRMLYSFMKKGQMEKDIRSDVEESDSSEEAAAAQEPLQLKNGAAGGPRPAPTDGPRSRVAGRLTNRHTTAT
B9: LASS3 (protein, UniProt Q8IU89 1-383, looked up)
Ceramide synthase 3: MFWTFKEWFWLERFWLPPTIKWSDLEDHDGLVFVKPSHLYVTIPYAFLLLIIRRVFEKFVASPLAKSFGIKETVRKVTPNTVLENFFKHSTRQPLQTDIYGLAKKCNLTERQVERWFRSRRNQERPSRLKKFQEACWRFAFYLMITVAGIAFLYDKPWLYDLWEVWNGYPKQPLLPSQYWYYILEMSFYWSLLFRLGFDVKRKDFLAHIIHHLAAISLMSFSWCANYIRSGTLVMIVHDVADIWLESAKMFSYAGWTQTCNTLFFIFSTIFFISRLIVFPFWILYCTLILPMYHLEPFFSYIFLNLQLMILQVLHLYWGYYILKMLNRCIFMKSIQDVRSDDEDYEEEEEEEEEEATKGKEMDCLKNGLRAERHLIPNGQHGH
B10: IRF9 (protein, UniProt Q00978 1-393, looked up)
Interferon regulatory factor 9: MASGRARCTRKLRNWVVEQVESGQFPGVCWDDTAKTMFRIPWKHAGKQDFREDQDAAFFKAWAIFKGKYKEGDTGGPAVWKTRLRCALNKSSEFKEVPERGRMDVAEPYKVYQLLPPGIVSGQPGTQKVPSKRQHSSVSSERKEEEDAMQNCTLSPSVLQDSLNNEEEGASGGAVHSDIGSSSSSSSPEPQEVTDTTEAPFQGDQRSLEFLLPPEPDYSLLLTFIYNGRVVGEAQVQSLDCRLVAEPSGSESSMEQVLFPKPGPLEPTQRLLSQLERGILVASNPRGLFVQRLCPIPISWNAPQAPPGPGPHLLPSNECVELFRTAYFCRDLVRYFQGLGPPPKFQVTLNFWEESHGSSHTPQNLITVKMEQAFARYLLEQTPEQQAAILSLV
B11: IRF5 (protein, UniProt Q13568 1-498, looked up)
Interferon regulatory factor 5: MNQSIPVAPTPPRRVRLKPWLVAQVNSCQYPGLQWVNGEKKLFCIPWRHATRHGPSQDGDNTIFKAWAKETGKYTEGVDEADPAKWKANLRCALNKSRDFRLIYDGPRDMPPQPYKIYEVCSNGPAPTDSQPPEDYSFGAGEEEEEEEELQRMLPSLSLTEDVKWPPTLQPPTLRPPTLQPPTLQPPVVLGPPAPDPSPLAPPPGNPAGFRELLSEVLEPGPLPASLPPAGEQLLPDLLISPHMLPLTDLEIKFQYRGRPPRALTISNPHGCRLFYSQLEATQEQVELFGPISLEQVRFPSPEDIPSDKQRFYTNQLLDVLDRGLILQLQGQDLYAIRLCQCKVFWSGPCASAHDSCPNPIQREVKTKLFSLEHFLNELILFQKGQTNTPPPFEIFFCFGEEWPDRKPREKKLITVQVVPVAARLLLEMFSGELSWSADSIRLQISNPDLKDRMVEQFKELHHIWQSQQRLQPVAQAPPGAGLGVGQGPWPMHPAGMQ
B12: KLRG1 (protein, UniProt Q96E93 1-195, looked up)
Killer cell lectin-like …: MTDSVIYSMLELPTATQAQNDYGPQQKSSSSRPSCSCLVAIALGLLTAVLLSVLLYQWILCQGSNYSTCASCPSCPDRWMKYGNHCYYFSVEEKDWNSSLEFCLARDSHLLVITDNQEMSLLQVFLSEAFCWIGLRNNSGWRWEDGSPLNFSRISSNSFVQTCGAINKNGLQASSCEVPLHWVCKKCPFADQALF
B13: IRF8 (protein, UniProt Q02556 1-426, looked up)
Interferon regulatory factor 8: MCDRNGGRRLRQWLIEQIDSSMYPGLIWENEEKSMFRIPWKHAGKQDYNQEVDASIFKAWAVFKGKFKEGDKAEPATWKTRLRCALNKSPDFEEVTDRSQLDISEPYKVYRIVPEEEQKCKLGVATAGCVNEVTEMECGRSEIDELIKEPSVDDYMGMIKRSPSPPEACRSQLLPDWWAQQPSTGVPLVTGYTTYDAHHSAFSQMVISFYYGGKLVGQATTTCPEGCRLSLSQPGLPGTKLYGPEGLELVRFPPADAIPSERQRQVTRKLFGHLERGVLLHSSRQGVFVKRLCQGRVFCSGNAVVCKGRPNKLERDEVVQVFDTSQFFRELQQFYNSQGRLPDGRVVLCFGEEFPDMAPLRSKLILVQIEQLYVRQLAEEAGKSCGAGSVMQAPEEPPPDQVFRMFPDICASHQRSFFRENQQITV

Tested on: HEK293FT cells transfected with TF library
Assay: Screening of TF condensates based on fluorescent puncta
Type: cell-based
Conditions: Figure 1B numerical data; TF library screen, one value per transcriptional factor
Outline: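 HEK293FT, PEI transfection of TF library, 60 h; ±glucose 12 h; 4% PFA fix, 0.05% Triton X-100 permeabilization, 5% BSA block; anti-Flag/anti-GAL4 overnight at 4 °C, Alexa 488 secondary 1 h; high-content imaging, 50 fields/well.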

Molecule | Z score of condensed fraction
B1 | -0.9915
B2 | -0.6196
B3 | 0.4258
B4 | -1.0906
B5 | -0.6246
B6 | -0.9162
B7 | -1.182
B8 | -0.3767
B9 | -1.783
B10 | 1.05
B11 | -0.5098
B12 | 2.376
B13 | 2.123

Source: publication PMC11574045, “A cofactor-induced repressive type of transcription factor condensation can be induced by synthetic peptides to suppress tumorigenesis” (The EMBO Journal, 2024)
